Holding throughout (assay): purified protein
Substrate in data set [1]: CC(=O)CCC(C)=O
Particulars: reduction, 70°C, 0.1 M sodium phosphate pH 7.0, 0.35 mM NADPH.

Substrate in data set [2]: C[C@H](O)CC[C@H](C)O
Particulars: oxidation, 70°C, 50 mM glycine pH 10.5, 0.35 mM NADP+.

Substrate in data set [3]: CC(=O)C=O
Particulars: reduction, 70°C, 0.1 M sodium phosphate pH 7.0, 0.35 mM NADPH.

Substrate in data set [4]: CCCC(C)O
Particulars: oxidation, 70°C, 50 mM glycine pH 10.5, 0.35 mM NADP+.

B1: AdhA (Pyrococcus furiosus; INS1A) (protein)
chain: MAKVAVITGASRGIGEAIAKALAEDGYSLALGARSVDRLEKIAKELSEKHGVEVFYDYLDVSKPESVEEFARKTLAHFGDVDVVVANAGLGYFGRLEELTEEQFHEMIEVNLLGVWRTIKAFLNSLKRTGGVAIVVTSDVSARLLPYGGGYVATKWAARALVRTFQIENPDVRFFELRPGAVDTYFGGSKAGKPKEQGYLKPEEVAEAVKYLLRLPKDVRVEELMLRSIYQKPEY
For B1, the Km in the data set “purified protein [1]” is 56.4 ± 0.6 mM; in the data set “purified protein [2]”, 5.4 ± 0.3 mM; in “purified protein [3]”, 1.2 ± 0.03 mM; in “purified protein [4]”, 30.3 ± 0.4 mM. The Vmax was determined as 1.9 µmol/min/mg in the data set “purified protein [1]”, 12.8 µmol/min/mg in “purified protein [2]”, 10.4 µmol/min/mg in “purified protein [3]” and 13.1 µmol/min/mg in the data set “purified protein [4]”. For the same protein, the kcat/Km in the data set “purified protein [1]” is 10 M⁻¹ s⁻¹; in “purified protein [2]”, 1000 M⁻¹ s⁻¹; in “purified protein [3]” it was 3800 M⁻¹ s⁻¹; in the data set “purified protein [4]”, 100 M⁻¹ s⁻¹.

Broadly, the Km is the concentration of substrate that gives half-maximal velocity. Broadly, the Vmax is the top rate of the reaction or transport when substrate is in excess. A word on the kcat/Km: it is the turnover number divided by the Michaelis constant.
